Experimental data as given in patent publication US20190345227A1 (HONG KONG UNIVERSITY OF SCIENCE AND TECHNOLOGY, published 2019).

Key:
[1] = target: T1, SpyCatcher-elastin-CarHC-elastin-SpyCatcher; assay: Dynamic shear rheology and erosion tests of the covalently cross-linked (SpyTag-SpyCatcher) hydrogel
T1 construct: Recombinant telechelic fusion protein (68 kDa) with two TEV protease sites, expressed in E. coli; also called BCB; SpyCatcher-ELP-carHC-ELP-SpyCatcher
Source text: Protein drugs, an important category of modem therapeutics, have a short half-life time inside the body because of rapid plasma clearance and proteolytic degradation, which constitutes a fundamental challenge for their delivery. The feasibility of using the photoresponsive CarHC-ELP hydrogel system to encapsulate and release protein molecules in a controlled manner was investigated. Two recombinant proteins, SpyTag-elastin-like polypeptide-SpyTag-elastin-like polypeptide-SpyTag (represented by the structural linkage “AAA”) (FIG. 6 and FIG. 13) and BCB, were synthesized with an elastin protein fragment to generate a covalently cross-linked ELP hydrogel. The two proteins were dissolved in PBS to make 10 wt % solutions. Gelation was initiated by mixing the two components at a 2:3 molar ratio and a stoichiometric amount of AdoB₁₂ in the dark. Dynamic shear rheology experiments in time-, frequency- and strain-sweep modes and erosion tests further confirmed the formation of a stable hydrogel (G′=0.96 kPa and G″=0.03 Pa) by AAA+BCB+AdoB₁₂ (FIGS. 14A-14C, respectively, and FIG. 15).

[2] = target: T1, SpyCatcher-elastin-CarHC-elastin-SpyCatc …; assay: Size-exclusion chromatography of the ACA+BCB reaction product and of the light-degraded gel. The major peak eluted at the void volume. The SpyTag-SpyCatcher bond is covalent.
Procedure: Using an Escherichia coli expression system, sufficient amounts of the ACA (98 mg/L) and BCB (66 mg/L) proteins with high purity (FIG. 6-9) were produced and isolaged. After extensive dialysis against distilled water and lyophilization, the resulting protein powders were readily dissolved in PBS. The two protein solutions, ACA and BCB (10 wt % in PBS), were mixed at an equimolar ratio immediately followed by addition of a stoichiometric amount of AdoB 12 to initiate gelation at room temperature in the dark. A red gel-like material was formed within 5 min; the gelation typically continued for at least 7 h in the dark before any subsequent analysis. The resulting gel was sensitive to light and converted to liquid on exposure to white LED light (30 klux) within 20 min (FIG. 2B). observed gel-sol transition can be explained by the light-induced disassembly of CarHC tetramers (FIGS. 1A & 1B). […] This SEC result further confirmed a sufficient pymerization of the CarHC proteins enabled by the SpyTag-SpyCatcher reaction during gelation.

B1: SpyTag-elastin-like polypeptide-SpyTag-elastin-like polypeptide-SpyTag (other)
chain: MKGSSHHHHHHVDAHIVMVDAYKPTKLDGHGVGVPGVGVPGVGVPGEGVPGVGVPGVGVPGVGVPGVGVPGEGVPGVGVPGVGVPGVGVPGVGVPGEGVPGVGVPGVGELAHIVMVDAYKPTKTSVPGVGVPGVGVPGEGVPGVGVPGVGVPGVGVPGVGVPGEGVPGVGVPGVGVPGVGVPGVGVPGEGVPGVGVPGVGVPGGLLDAHIVMVDAYKPTKLEWKK
notes: Recombinant protein with three SpyTags; It forms the covalent network with BCB; also called AAA; SpyTag-ELP-SpyTag-ELP-SpyTag
binding result [1]: binds

B2: SpyTag-elastin-CarHC-elastin-SpyTag (other)
chain: MKGSSHHHHHHVDAHIVMVDAYKPTKLDGHGVGVPGVGVPGVGVPGEGVPGVGVPGVGVPGVGVPGVGVPGEGVPGVGVPGVGVPGVGVPGVGVPGEGVPGVGVPGVGELPEDLGTGLLEALLRGDLAGAEALFRRGLRFWGPEGVLEHLLLPVLREVGEAWHRGEIGVAEEHLASTFLRARLQELLDLAGFPPGPPVLVTTPPGERHEIGAMLAAYHLRRKGVPALYLGPDTPLPDLRALARRLGAGAVVLSAVLSEPLRALPDGALKDLAPRVFLGGQGAGPEEARRLGAEYMEDLKGLAEALWLPRGPEKEAITSVPGVGVPGVGVPGEGVPGVGVPGVGVPGVGVPGVGVPGEGVPGVGVPGVGVPGVGVPGVGVPGEGVPGVGVPGVGVPGGLLDAHIVMVDAYKPTKLEWKK
notes: Recombinant telechelic fusion protein (41 kDa) expressed in E. coli and purified on HisTrap; also called ACA; SpyTag-ELP-carHC-ELP-SpyTag
binding result [2]: binds
